In patent publication US20240132615A1 (ICHNOS SCIENCES, published 2024):
Residue numbers refer to the chain shown, from its start.

T1: recombinant human BCMA Fc fusion protein (Acrobiosystems BC7-H5254 / BCA-H5254) (human, UniProt Q02223 1-54)
T1 construct: also called recombinant BCMA-Fc protein; not shown: Fc of the bought fusion protein, not described
T1 sequence (looked up): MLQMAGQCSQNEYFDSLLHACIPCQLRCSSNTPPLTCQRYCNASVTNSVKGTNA

T2: human BCMA on cells (NCI-H929, NCI-H929 CD38 KO, MOLP-8) (human, UniProt Q02223 1-184)
T2 construct: whole, on cells; endogenous BCMA of myeloma cell lines
T2 sequence (looked up): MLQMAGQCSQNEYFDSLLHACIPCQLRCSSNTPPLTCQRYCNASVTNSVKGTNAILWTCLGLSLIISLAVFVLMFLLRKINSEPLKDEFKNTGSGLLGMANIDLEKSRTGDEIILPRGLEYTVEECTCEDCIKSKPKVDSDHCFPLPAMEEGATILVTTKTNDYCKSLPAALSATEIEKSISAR

B1: Anti-BCMA-D3-MP04-A2 FAB (Fab, V domains shown)
VH: EVQLVESGGGLIQPGGSLRLSCAASGFIFSHYEMNWVRQAPGKGLEWVSAIGQQGGNTVYADSVKGRFTISRDNSKNTLYLQMNSLRAEDTAVYYCARVPYSYSGYSGADIWGQGTLVTVSS
VL: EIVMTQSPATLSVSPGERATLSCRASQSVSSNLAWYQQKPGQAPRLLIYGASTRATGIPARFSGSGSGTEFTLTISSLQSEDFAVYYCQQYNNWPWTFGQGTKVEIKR
notes: Fab
B2: Anti-BCMA-D3-MP04-C8b FAB (Fab, V domains shown)
VH: B1 VH with Q54I, G56F, N57G, V59L, S63N
VL: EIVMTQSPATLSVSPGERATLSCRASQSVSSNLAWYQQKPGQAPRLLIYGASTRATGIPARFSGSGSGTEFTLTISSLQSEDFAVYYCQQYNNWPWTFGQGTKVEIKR
notes: Fab
B3: Anti-BCMA-D3-MP04-C8a FAB (Fab, V domains shown)
VH: B1 VH with Q54M, G56F, N57G, V59L, S63N
VL: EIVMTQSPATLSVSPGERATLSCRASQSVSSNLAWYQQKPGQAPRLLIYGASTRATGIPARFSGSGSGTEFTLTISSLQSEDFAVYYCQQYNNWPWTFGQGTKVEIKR
notes: Fab
B4: Anti-BCMA-D3-MP04-D4 FAB (Fab, V domains shown)
VH: B1 VH with Q54V
VL: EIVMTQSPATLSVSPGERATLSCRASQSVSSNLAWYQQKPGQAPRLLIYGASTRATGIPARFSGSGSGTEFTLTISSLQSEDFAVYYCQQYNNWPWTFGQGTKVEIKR
notes: Fab
B5: Anti-BCMA-D3-MP04-E11 FAB (Fab, V domains shown)
VH: B1 VH with Q54L
VL: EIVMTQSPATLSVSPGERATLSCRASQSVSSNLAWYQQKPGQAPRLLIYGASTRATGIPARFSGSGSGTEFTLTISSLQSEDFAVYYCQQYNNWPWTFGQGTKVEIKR
notes: Fab; also called anti-BCMA-D3-E11; D3-E11
B6: Anti-BCMA-D3-MP03-G7 FAB (Fab, V domains shown)
VH: B1 VH with A50I, Q54R, G56H, N57T, V59E
VL: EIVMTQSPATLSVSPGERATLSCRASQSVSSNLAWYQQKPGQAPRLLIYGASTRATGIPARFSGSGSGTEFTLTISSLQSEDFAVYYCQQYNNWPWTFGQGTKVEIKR
notes: Fab
B7: Anti-BCMA-D3-MP04-C2 FAB (Fab, V domains shown)
VH: B1 VH with Q54F
VL: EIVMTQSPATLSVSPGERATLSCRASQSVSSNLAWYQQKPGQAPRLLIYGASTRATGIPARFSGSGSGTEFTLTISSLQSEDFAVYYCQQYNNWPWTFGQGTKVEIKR
notes: Fab
B8: Anti-BCMA-D3-MP04-B11a FAB (Fab, V domains shown)
VH: EVQLVESGGGLIQPGGSLRLSCAASGFIFSHYEMNWVRQAPGKGLEWVSAIGQVDGEVYADSVKGRFTISRDNSKNTLYLQMNSLRAEDTAVYYCARVPYSYSGYSGADIWGQGTLVTVSS
VL: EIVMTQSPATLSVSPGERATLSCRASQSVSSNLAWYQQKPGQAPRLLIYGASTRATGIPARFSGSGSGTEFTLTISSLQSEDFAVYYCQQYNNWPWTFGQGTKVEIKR
notes: Fab
B9: Anti-BCMA-D3-MP04-F3 FAB (Fab, V domains shown)
VH: B8 VH with D55G, G56N, E57T
VL: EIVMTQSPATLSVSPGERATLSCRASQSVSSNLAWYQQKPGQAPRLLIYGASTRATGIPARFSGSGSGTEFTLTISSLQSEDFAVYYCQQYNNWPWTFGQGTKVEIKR
notes: Fab
B10: Anti-BCMA-D3-MP04-B11d FAB (Fab, V domains shown)
VH: B8 VH with D55A, G56A
VL: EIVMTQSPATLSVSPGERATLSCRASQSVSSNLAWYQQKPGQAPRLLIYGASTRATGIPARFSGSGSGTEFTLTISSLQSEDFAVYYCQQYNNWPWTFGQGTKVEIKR
notes: Fab
B11: Anti-BCMA-D3-MP04-B11c FAB (Fab, V domains shown)
VH: B8 VH with D55E
VL: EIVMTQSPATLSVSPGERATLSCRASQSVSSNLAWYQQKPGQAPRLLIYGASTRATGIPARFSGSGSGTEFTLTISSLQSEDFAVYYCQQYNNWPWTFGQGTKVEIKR
notes: Fab
B12: Anti-BCMA-D3-MP04-G7 FAB (Fab, V domains shown)
VH: B8 VH with V54R, E57T
VL: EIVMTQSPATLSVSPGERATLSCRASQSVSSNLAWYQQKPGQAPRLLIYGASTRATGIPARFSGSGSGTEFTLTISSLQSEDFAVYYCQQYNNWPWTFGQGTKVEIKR
notes: Fab
B13: Anti-BCMA-D3-MP05-C1a FAB (Fab, V domains shown)
VH: B8 VH with V54G, D55G, G56N, E57T, S103M, S106A
VL: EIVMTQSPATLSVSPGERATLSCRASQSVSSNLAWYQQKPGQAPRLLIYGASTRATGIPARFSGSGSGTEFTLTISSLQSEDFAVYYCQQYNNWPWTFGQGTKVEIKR
notes: Fab
B14: Anti-BCMA-D3-MP05-F4 FAB (Fab, V domains shown)
VH: B8 VH with V54G, D55G, G56N, E57T, S103L, S106Q
VL: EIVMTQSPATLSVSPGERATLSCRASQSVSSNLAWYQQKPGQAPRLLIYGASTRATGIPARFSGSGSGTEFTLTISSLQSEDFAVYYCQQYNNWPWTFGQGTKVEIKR
notes: Fab
B15: Anti-BCMA-D3-MP05-C1b FAB (Fab, V domains shown)
VH: B8 VH with V54G, D55G, G56N, E57T, S103I, S106A
VL: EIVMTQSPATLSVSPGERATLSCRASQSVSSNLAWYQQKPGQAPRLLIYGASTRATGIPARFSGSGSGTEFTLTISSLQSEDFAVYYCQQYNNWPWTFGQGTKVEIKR
notes: Fab
B16: Anti-BCMA-D3-MP04-B11b FAB (Fab, V domains shown)
VH: B8 VH with G56A
VL: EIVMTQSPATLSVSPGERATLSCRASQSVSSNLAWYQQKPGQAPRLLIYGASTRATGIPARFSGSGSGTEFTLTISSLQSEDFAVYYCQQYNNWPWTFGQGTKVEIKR
notes: Fab
B17: Anti-BCMA-D3-MP05-A9 FAB (Fab, V domains shown)
VH: B8 VH with V54G, D55G, G56N, E57T, S103A
VL: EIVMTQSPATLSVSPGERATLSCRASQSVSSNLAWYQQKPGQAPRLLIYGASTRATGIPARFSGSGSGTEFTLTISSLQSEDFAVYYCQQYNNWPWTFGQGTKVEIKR
notes: Fab
B18: Anti-CD3-C1-UCP01-E10 IgG1LALA (antibody, V domains shown)
VH: QVQLVQSGAEVKKPGSSVKVSCKASGGKFSRYAISWVRQAPGQGLEWMGGISPFEGTPAYAQKFQGRVTITADESTSTAYMELSSLRSEDTAVYYCARYGYSLYMDIWGQGTLVTVSS
VL: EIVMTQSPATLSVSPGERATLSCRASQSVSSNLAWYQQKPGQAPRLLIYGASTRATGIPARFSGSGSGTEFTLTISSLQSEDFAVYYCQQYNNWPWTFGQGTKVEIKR
notes: IgG1 LALA; also called anti-CD3-C1-E10
B19: Anti-CD3-C1-UCP02-E1 IgG1LALA (antibody, V domains shown)
VH: B18 VH with E55K, T57Y, P58A, A59E
VL: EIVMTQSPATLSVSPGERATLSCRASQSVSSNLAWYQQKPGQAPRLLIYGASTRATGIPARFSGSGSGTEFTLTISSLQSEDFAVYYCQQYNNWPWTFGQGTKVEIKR
notes: IgG1 LALA
B20: Anti-CD3-C1-UCP01-H10 IgG1LALA (antibody, V domains shown)
VH: B18 VH with F54L, E55V, T57Y, A59Q
VL: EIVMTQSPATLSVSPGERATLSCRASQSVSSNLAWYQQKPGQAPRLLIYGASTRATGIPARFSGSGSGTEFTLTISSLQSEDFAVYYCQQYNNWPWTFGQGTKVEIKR
notes: IgG1 LALA; also called anti-CD3-C1-H10
B21: Anti-CD3-C1-UCP01-F12 IgG1LALA (antibody, V domains shown)
VH: B18 VH with E55R, T57H, P58A, A59E
VL: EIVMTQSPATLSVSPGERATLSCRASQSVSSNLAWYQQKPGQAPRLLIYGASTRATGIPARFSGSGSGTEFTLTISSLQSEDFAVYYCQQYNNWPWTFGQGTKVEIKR
notes: IgG1 LALA
B22: Anti-CD3-C1-UCP01-E11 IgG1LALA (antibody, V domains shown)
VH: B18 VH with S52N, E55K, T57D, P58A, A59E
VL: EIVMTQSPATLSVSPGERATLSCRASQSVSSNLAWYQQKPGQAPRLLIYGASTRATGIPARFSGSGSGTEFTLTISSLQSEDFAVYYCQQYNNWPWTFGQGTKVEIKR
notes: IgG1 LALA
B23: Anti-CD3-C1-UCP01-F10 IgG1LALA (antibody, V domains shown)
VH: B18 VH with S52N, F54H, E55I, G56R, T57F, A59E
VL: not shown
notes: IgG1 LALA; also called anti-CD3-C1-F10
B24: Anti-CD3-C1-UCP01-F1 IgG1LALA (antibody, V domains shown)
VH: B18 VH with S52N, F54R, E55L, T57Q, P58A, A59E
VL: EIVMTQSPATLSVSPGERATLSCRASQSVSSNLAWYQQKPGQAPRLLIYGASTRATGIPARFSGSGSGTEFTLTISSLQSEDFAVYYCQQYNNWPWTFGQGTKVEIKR
notes: IgG1 LALA
B25: Anti-CD3-C1-UCP01-E12 IgG1LALA (antibody, V domains shown)
VH: B18 VH with S52N, F54L, E55V, T57H, P58A, A59E
VL: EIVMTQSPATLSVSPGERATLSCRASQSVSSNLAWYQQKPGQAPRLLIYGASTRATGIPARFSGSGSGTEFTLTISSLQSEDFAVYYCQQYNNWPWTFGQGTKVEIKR
notes: IgG1 LALA; also called anti-CD3-C1-E12
B26: Anti-CD3-C1-UCP01-G12 IgG1LALA (antibody, V domains shown)
VH: B18 VH with E10K, F54H, E55I, T57H, A59E
VL: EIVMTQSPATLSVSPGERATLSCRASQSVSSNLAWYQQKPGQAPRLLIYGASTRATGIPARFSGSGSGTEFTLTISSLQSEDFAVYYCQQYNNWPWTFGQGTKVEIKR
notes: IgG1 LALA
B27: Anti-CD3-C1-UCP01-B9 IgG1LALA (antibody, V domains shown)
VH: QVQLVQSGAEVKKPGSSVKVSCKASGGKFSRYAISWVRQAPGQGLEWMGGINAPVVRSPEYAQKFQGRVTITADESTSTAYMELSSLRSEDTAVYYCARYGYSLYMDIWGQGTLVTVSS
VL: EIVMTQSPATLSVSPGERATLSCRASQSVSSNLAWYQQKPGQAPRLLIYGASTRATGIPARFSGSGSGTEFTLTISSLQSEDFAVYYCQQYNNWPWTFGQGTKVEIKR
notes: IgG1 LALA
B28: Anti-CD3-C1-UCP01-E6 IgG1LALA (antibody, V domains shown)
VH: B27 VH with N52T, A53P, V55H, R57G, S58I, P59A, E60D
VL: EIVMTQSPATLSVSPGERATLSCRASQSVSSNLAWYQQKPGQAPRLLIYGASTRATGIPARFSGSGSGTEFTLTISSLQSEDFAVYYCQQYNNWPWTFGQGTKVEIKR
notes: IgG1 LALA
B29: Anti-CD38-E2-UCP01-A10 FAB (Fab, V domains shown)
VH: QVQLVQSGAEVKKPGSSVKVSCKASGLPDATYAIGWVRQAPGQGLEWMGRIIPVFGSAHYAQKFQGRVTITADESTSTAYMELSSLRSEDTAVYYCARGLGYYLYSSYYFDIWGQGTLVTVSS
VL: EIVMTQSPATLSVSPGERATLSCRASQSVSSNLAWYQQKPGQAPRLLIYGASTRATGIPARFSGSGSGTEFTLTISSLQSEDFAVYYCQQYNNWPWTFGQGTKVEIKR
notes: Fab
B30: Anti-CD38-E2-UCP02-G8 FAB (Fab, V domains shown)
VH: B29 VH with L27G, P28S, D29F, A30S, T31N, V54A, F55L, S57G, A58V
VL: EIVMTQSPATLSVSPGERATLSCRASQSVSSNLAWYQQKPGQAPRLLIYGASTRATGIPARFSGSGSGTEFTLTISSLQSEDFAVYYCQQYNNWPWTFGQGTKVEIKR
notes: Fab
B31: Anti-CD38-E2-UCP02-E7 FAB (Fab, V domains shown)
VH: B29 VH with L27G, P28S, D29F, A30S, T31N, V54A, F55L, G56A, S57A, A58T
VL: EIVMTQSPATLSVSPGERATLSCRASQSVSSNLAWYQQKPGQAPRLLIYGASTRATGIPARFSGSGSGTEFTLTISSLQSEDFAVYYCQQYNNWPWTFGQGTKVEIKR
notes: Fab
B32: Anti-CD38-E2-UCP02-A5 FAB (Fab, V domains shown)
VH: B29 VH with L27G, P28S, D29F, A30S, T31N, V54D, F55L, S57A
VL: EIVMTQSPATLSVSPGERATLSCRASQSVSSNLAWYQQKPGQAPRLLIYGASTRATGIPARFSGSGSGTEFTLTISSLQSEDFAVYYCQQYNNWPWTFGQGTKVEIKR
notes: Fab; also called anti-CD38-E2-A5; E2-A5
B33: Anti-CD38-E2-UCP02-F3 FAB (Fab, V domains shown)
VH: B29 VH with L27G, P28S, D29F, A30S, T31N, F55L, G56D, S57A
VL: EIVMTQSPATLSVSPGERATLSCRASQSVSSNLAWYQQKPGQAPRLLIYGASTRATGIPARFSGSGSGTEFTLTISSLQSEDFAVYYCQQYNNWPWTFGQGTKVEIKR
notes: Fab
B34: Anti-CD38-E2-UCP02-D6 FAB (Fab, V domains shown)
VH: B29 VH with L27G, P28S, D29F, A30S, T31N, V54R, F55L, G56D, S57A, A58E
VL: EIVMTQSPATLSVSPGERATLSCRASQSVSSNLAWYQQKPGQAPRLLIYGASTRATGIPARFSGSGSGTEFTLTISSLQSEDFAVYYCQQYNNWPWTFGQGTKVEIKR
notes: Fab
B35: Anti-CD38-E2-UCP02-F8 FAB (Fab, V domains shown)
VH: B29 VH with L27G, P28S, D29F, A30S, T31N, V54S, F55L, G56D, S57A, A58G
VL: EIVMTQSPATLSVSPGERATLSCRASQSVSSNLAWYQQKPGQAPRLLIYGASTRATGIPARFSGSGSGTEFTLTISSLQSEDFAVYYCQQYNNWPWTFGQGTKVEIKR
notes: Fab
B36: Anti-CD38-B3-PP11-A2 FAB (Fab, V domains shown)
VH: QVQLVQSGAEVKKPGSSVKVSCKASGQTTPMYSISWVRQAPGQGLEWMGRIIPTGANANYAQKFQGRVTITADESTSTAYMELSSLRSEDTAVYYCARSWPSLGSGWFDIWGQGTLVTVSS
VL: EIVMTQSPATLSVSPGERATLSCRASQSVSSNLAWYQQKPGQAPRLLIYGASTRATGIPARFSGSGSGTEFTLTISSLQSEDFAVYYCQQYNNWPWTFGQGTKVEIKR
notes: Fab
B37: Anti-CD38-B3-PP11-C11 FAB (Fab, V domains shown)
VH: B36 VH with Q27G, T28D, T29F, P30T, M31L, W100T, S102T, L103Y
VL: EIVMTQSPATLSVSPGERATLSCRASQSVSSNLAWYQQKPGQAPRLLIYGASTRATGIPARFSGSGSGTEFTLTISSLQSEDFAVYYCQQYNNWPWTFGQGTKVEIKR
notes: Fab; also called anti-CD38-B3-C11; B3-C11
B38: Anti-CD38-B3-PP11-D1a FAB (Fab, V domains shown)
VH: B36 VH with Q27M, T28Q, P30R, M31W
VL: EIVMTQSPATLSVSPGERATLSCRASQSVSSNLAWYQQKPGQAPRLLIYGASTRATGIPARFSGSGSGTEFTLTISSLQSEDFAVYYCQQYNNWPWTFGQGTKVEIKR
notes: Fab

Target: T1, recombinant human BCMA Fc fusion …
Assay: SPR, Fab as analyte, captured human BCMA-Fc

In order of rising Kd:
1. B5  0.01 nM
2. B4  0.02 nM
3. B1  0.03 nM
4. B2  0.03 nM
5. B7  0.03 nM
6. B12  0.08 nM
7. B3  0.09 nM
8. B8  0.14 nM
9. B11  0.16 nM
10. B6  0.41 nM
11. B16  0.52 nM
12. B9  0.64 nM
13. B14  0.78 nM
14. B13  1.03 nM
15. B15  2.22 nM
16. B17  2.3 nM
17. B10  5.43 nM

Target: T3, human CD3 on cells (HPB-ALL cells, primary human T cells) (human, UniProt P07766 23-207)
T3 construct: whole, on cells; only the epsilon chain is written
Assay: flow cytometry, human CD4+ T cells

T3 sequence (P07766 23-207): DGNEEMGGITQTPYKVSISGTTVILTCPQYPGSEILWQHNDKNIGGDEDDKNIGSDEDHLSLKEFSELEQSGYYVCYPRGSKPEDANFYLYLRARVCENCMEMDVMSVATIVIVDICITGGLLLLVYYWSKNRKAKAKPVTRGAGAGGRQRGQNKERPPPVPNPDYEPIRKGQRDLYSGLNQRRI

In order of falling “MFI at 800 nM” value:
1. B28  231000 MFI
2. B19  151000 MFI
3. B20  151000 MFI
4. B23  150000 MFI
5. B25  149000 MFI
6. B26  121000 MFI
7. B21  108000 MFI
8. B27  108000 MFI
9. B18  100000 MFI
10. B22  91800 MFI
11. B24  81300 MFI

Target: T4, recombinant cynomolgus monkey CD38-ECD-C-his protein (cynomolgus monkey, UniProt Q5VAN0 45-301)
T4 construct: made in house; Q5VAN0 residues 43-301 (residue 44 deleted) with C-terminal 6-His; also called cynomolgus monkey CD38-C-His; recombinant cynomolgus monkey CD38 protein
Assay: SPR, Fab as analyte, captured cynomolgus CD38-his

In order of falling Kd:
1. B36  62.5 nM
2. B37  25 nM
3. B35  24.5 nM
4. B38  9.6 nM
5. B29  8.6 nM
6. B32  4.4 nM
7. B30  4.2 nM
8. B33  2.4 nM
9. B31  1.8 nM
10. B34  1.1 nM

Target: T5, recombinant cynomolgus monkey BCMA Fc fusion protein (Acrobiosystems BCA-C5253) (cynomolgus monkey, UniProt A0A2K5UD97 1-53)
T5 construct: bought protein; not shown: Fc of the bought fusion protein, not described
Assay: SPR, Fab as analyte, captured cynomolgus BCMA-Fc

T5 sequence (A0A2K5UD97 entry or part of it): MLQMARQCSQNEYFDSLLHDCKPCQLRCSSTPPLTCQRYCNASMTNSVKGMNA

In order of falling Kd:
1. B17  6.54 nM
2. B15  5.86 nM
3. B10  4.85 nM
4. B9  3.03 nM
5. B14  2.83 nM
6. B13  1.03 nM
7. B16  0.79 nM
8. B11  0.34 nM
9. B6  0.31 nM
10. B8  0.24 nM
11. B3  0.17 nM
12. B12  0.14 nM
13. B2  0.11 nM
14. B7  0.02 nM
15. B1  0.01 nM
16. B4  0.01 nM
17. B5  0.01 nM

Target: T2, human BCMA on cells (NCI-H929, NCI-H929 …)
Assay: flow cytometry, NCI-H929 cells, one-site fit

In order of falling Kd:
1. B6  29.5 nM
2. B16  14.1 nM
3. B5  13.4 nM
4. B14  11.8 nM
5. B4  8.84 nM
6. B1  7.68 nM
7. B2  7.39 nM
8. B9  7.12 nM
9. B7  6.49 nM
10. B8  6.03 nM
11. B12  5.82 nM
12. B11  3.9 nM
13. B3  3.65 nM

Target: T6, Biotinylated Human CD38 Protein, Avitag, His Tag (Acrobiosystems CD8-H82E7) (human, UniProt P28907 43-300, biotinylated)
T6 construct: bought protein; also called biotinylated recombinant human CD38 protein; human CD38-avi-his
Assay: SPR, Fab as analyte, biotin-captured human CD38

In order of falling Kd:
1. B36  38.4 nM
2. B32  23.6 nM
3. B35  17.6 nM
4. B38  10 nM
5. B29  9.4 nM
6. B37  5.4 nM
7. B30  5.2 nM
8. B34  4.9 nM
9. B33  3.5 nM
10. B31  2.2 nM

Target: T2, human BCMA on cells (NCI-H929, NCI-H929 …)
Assay: flow cytometry, NCI-H929 cells

In order of falling “Maximum binding (RFI)” value:
1. B5  31800 RFI
2. B14  29900 RFI
3. B2  28300 RFI
4. B12  27000 RFI
5. B3  26500 RFI
6. B4  25300 RFI
7. B7  24600 RFI
8. B8  23700 RFI
9. B16  23300 RFI
10. B11  22900 RFI
11. B1  21500 RFI
12. B6  21500 RFI
13. B9  19500 RFI
